From patent US20230134571A1 (INTERNATIONAL AIDS VACCINE INITIATIVE, published 2023)

Experiments:
Experiment in all cases: cell-based or functional assay
[1] = biological target: HIV Env, isolate 21492713_B11_E3 (HIV)
[2] = biological target: HIV Env, isolate 21502011_F12_E2 (HIV)
[3] = biological target: HIV Env, isolate 19314479_A2_5 (HIV)
[4] = biological target: HIV Env, isolate CAP225.1.06_A2_18 (HIV)
[5] = biological target: HIV Env, isolate 3603_C11.13 (HIV)
[6] = biological target: HIV Env, isolate CAP308.2.00_E11.35 (HIV)
[7] = biological target: HIV Env, isolate 20358510.01 (HIV)
[8] = biological target: HIV Env, isolate SO032_A2.8-1 (HIV)
[9] = biological target: HIV Env, isolate Ce2052_G10 (HIV)

B1: ePGDM9 (antibody, V domains shown)
VH: QAQLVQSGPEVRKPGTSVKVSCKNPGNTLTTYDLHWVRQVPGQGLQWMGWISHEGDKKVIVERFKAKVTIDWDRSTNTAYLQLSGLTSEDTAVYYCAKGSKHRLRDYALYDEDGALNWAVDVDYLANLEFWGQGTAVTVSS
VL: DIVLTQSPLSLSVTPGESASISCKSSQSLIHGDRNNYLAWYVQKPGRSPQLLIDLASERASGVPDRFSGSGSRKDFTLKISRVETEDVGTYYCMQGRESPWTFGQGTKVDIK
- IC50 [1]: > 50 µg/mL
- IC80 [1]: > 50 µg/mL
- IC50 [2]: > 50 µg/mL
- IC80 [2]: > 50 µg/mL
- IC50 [3]: < 0.0006 µg/mL
- IC80 [3]: 0.001 µg/mL
- IC50 [4]: 0.025 µg/mL
- IC80 [4]: 0.167 µg/mL
- IC50 [5]: 0.654 µg/mL
- IC80 [5]: 2.17 µg/mL
- IC50 [6]: 0.001 µg/mL
- IC80 [6]: 0.004 µg/mL
- IC50 [7]: 0.004 µg/mL
- IC80 [7]: 0.017 µg/mL
- IC50 [8]: > 50 µg/mL
- IC80 [8]: > 50 µg/mL
- IC50 [9]: 0.001 µg/mL
- IC80 [9]: 0.005 µg/mL
